Here are results for one molecule from article PMC6650273 (Nature cell biology, 2019).

For this experiment, the target named is FLAG-Tor (Dictyostelium discoideum, UniProt Q86C65 1-2380). Nature of the experiment: pull-down.
FLAG-Tor, sequence (Q86C65 whole entry): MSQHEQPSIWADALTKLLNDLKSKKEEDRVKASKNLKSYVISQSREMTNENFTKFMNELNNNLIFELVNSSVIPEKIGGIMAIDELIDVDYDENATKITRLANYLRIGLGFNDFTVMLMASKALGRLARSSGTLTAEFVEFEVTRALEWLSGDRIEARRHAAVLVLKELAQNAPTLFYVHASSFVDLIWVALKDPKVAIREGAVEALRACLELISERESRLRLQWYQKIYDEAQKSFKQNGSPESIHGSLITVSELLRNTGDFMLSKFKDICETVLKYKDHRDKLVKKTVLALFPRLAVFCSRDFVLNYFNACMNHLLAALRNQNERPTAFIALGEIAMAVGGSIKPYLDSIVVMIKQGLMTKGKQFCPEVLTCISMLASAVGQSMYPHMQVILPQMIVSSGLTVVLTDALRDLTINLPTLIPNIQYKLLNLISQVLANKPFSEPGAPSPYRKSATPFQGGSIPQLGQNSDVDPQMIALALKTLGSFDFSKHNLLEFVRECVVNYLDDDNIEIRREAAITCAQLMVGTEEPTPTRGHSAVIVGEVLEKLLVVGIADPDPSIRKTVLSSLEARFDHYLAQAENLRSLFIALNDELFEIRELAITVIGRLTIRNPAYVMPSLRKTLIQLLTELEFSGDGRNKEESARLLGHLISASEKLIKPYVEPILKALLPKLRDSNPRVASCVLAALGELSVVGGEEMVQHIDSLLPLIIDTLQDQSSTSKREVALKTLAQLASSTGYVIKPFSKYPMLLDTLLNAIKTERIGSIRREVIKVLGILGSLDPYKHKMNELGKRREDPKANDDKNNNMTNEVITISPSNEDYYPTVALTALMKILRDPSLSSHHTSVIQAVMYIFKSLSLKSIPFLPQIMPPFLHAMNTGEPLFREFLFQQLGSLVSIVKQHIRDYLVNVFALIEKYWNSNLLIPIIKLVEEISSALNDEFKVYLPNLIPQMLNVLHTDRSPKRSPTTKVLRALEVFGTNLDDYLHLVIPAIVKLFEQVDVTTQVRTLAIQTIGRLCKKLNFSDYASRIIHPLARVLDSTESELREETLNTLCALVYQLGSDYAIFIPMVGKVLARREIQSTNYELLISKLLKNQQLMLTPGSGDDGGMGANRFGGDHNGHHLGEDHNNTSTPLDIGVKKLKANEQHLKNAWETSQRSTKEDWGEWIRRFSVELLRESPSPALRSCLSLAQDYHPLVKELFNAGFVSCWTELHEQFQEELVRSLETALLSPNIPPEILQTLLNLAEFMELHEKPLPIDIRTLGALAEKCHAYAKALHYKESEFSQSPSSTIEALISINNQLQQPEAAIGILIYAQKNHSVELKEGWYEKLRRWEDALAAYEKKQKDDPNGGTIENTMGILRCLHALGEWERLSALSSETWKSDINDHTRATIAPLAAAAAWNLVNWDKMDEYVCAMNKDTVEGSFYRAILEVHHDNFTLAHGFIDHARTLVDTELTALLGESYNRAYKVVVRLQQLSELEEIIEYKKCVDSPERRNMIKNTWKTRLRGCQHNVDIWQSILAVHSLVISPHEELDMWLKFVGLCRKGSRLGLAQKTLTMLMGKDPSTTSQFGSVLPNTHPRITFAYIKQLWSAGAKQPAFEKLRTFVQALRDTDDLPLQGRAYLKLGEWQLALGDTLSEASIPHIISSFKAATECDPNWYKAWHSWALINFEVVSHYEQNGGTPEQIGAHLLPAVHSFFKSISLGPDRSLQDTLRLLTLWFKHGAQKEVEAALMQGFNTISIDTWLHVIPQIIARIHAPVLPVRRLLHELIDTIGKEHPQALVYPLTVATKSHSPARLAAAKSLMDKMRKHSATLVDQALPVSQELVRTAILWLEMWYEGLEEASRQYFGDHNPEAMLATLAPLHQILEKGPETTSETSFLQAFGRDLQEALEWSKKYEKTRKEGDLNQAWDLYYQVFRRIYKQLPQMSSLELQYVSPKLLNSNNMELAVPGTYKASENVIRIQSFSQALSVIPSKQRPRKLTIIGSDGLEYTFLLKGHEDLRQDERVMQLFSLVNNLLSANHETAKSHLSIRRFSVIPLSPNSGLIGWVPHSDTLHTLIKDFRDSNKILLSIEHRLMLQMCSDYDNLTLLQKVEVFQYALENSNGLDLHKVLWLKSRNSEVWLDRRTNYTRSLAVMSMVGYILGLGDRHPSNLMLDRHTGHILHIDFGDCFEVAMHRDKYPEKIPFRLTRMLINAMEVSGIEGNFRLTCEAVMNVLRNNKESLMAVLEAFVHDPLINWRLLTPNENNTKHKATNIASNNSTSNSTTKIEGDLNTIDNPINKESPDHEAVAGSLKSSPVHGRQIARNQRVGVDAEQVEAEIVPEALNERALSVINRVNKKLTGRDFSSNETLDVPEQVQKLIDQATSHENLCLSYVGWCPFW

B1: GFP-RacE_(T25N), GDP-bound, purified after chemoattractant stimulation (Ser192 phosphorylated) (natural protein)
chain: MSEDQGSGATRVKLVVVGDGAVGKNCLLICYAQNDFPVDYVPTVFENYTATRKRGNEDIKVHLWDTAGQEEYDRLRPLSYPGADVVLLCFSTISQSSYEAIRDKWAPEVNHYIPDVPSILVGTKIDLREQQHPDPNSGKFEPITADMGISMQKQIKAKKYLEVSAKTRQGLEEVFSAAIEIVLESRGMDKKSQDGSSSASGVPSGDKPTKGKAGKKKSGCIIL
modifications: phosphoserine at 192 (chemoattractant-induced)
For B1, the binding result is reported as “binds”.
